Source: patent US20040176573A1

B1: C6 (peptide)
peptide: QPRAPIRPI
modifications: not checked
B2: Sur 54-62 (peptide)
peptide: LAQCFFCFK
B3: C7 (peptide)
peptide: RPPIFIRRL
modifications: not checked

Experiments:
HLA-B7 (human) = assay: assembly assay for peptide binding to MHC class I (HLA-B7)
HLA-A11 (human) = assay: assembly assay: stabilisation of 35S-labelled HLA-A11 from TAP-deficient cell lysate, W6/32 immunoprecipitation, IEF gel; details: remark: other sources report otherwise

Binder	C50 (HLA-B7 (human))	C50 (HLA-A11 (human))
B1	0.1 µM	–
B2	–	0.4 µM
B3	0.5 µM	–
